System: Escherichia coli TOP10
Assay: shrunken log2 fold change of peptide-encoding DNA abundance (4.5 h post-induction vs induction); higher = less antimicrobial activity (less host growth inhibition)
Conditions: time post-induction: 4.5 h; library: site-saturation at positions 5, 18, 19, 20
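Further: peptides expressed intracellularly from a pBAD plasmid library in pooled LB shake-flask culture, induced with 0.3% L-arabinose, DNA abundance read by NGS, three biological replicates, DESeq2 with apeglm shrinkage.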

Sequence | shrunken log2 fold change
RRIRKRPPRLPRPRPRPDFQPRP | 0.33
RRIRKRPPRLPRPRPRPPGVPRP | 0.548
RRIRIRPPRLPRPRPRPMIPPRP | 1.87
RRIRYRPPRLPRPRPRPNSMPRP | -1.77
RRIRRRPPRLPRPRPRPFPRPRP | 0.272
RRIRHRPPRLPRPRPRPYMDPRP | -0.356
RRIRERPPRLPRPRPRPPQWPRP | 0.0679
RRIRDRPPRLPRPRPRPNQYPRP | -0.428
RRIRRRPPRLPRPRPRPIVCPRP | 0.539
RRIRYRPPRLPRPRPRPMPHPRP | -0.202
RRIRDRPPRLPRPRPRPWGDPRP | 0.13
RRIRWRPPRLPRPRPRPHHLPRP | -0.71
RRIRSRPPRLPRPRPRPNDQPRP | -0.102
RRIRQRPPRLPRPRPRPYRTPRP | 0.0218
RRIRHRPPRLPRPRPRPTDWPRP | 0.223
RRIRMRPPRLPRPRPRPTRSPRP | 1.35
RRIRPRPPRLPRPRPRPVYYPRP | -0.348
RRIRRRPPRLPRPRPRPHDGPRP | -0.0863
RRIRLRPPRLPRPRPRPRYVPRP | -0.265
RRIRSRPPRLPRPRPRPSQYPRP | -0.466

Sequence | shrunken log2 fold change
RRIRARPPRLPRPRPRPSSPPRP | 0.0282
RRIRARPPRLPRPRPRPGESPRP | 0.014
RRIRNRPPRLPRPRPRPRKPPRP | -0.0565
RRIRDRPPRLPRPRPRPGQLPRP | -0.284
RRIRRRPPRLPRPRPRPVQWPRP | 0.143
RRIRMRPPRLPRPRPRPHFAPRP | 0.194
RRIRDRPPRLPRPRPRPFEYPRP | -0.00586
RRIRMRPPRLPRPRPRPDDKPRP | 1.43
RRIRVRPPRLPRPRPRPQWGPRP | -0.149
RRIRCRPPRLPRPRPRPCNTPRP | -0.306
RRIRRRPPRLPRPRPRPFHWPRP | -0.111
RRIRFRPPRLPRPRPRPWHRPRP | 2.08
RRIRYRPPRLPRPRPRPDKNPRP | -0.558
RRIRPRPPRLPRPRPRPDTMPRP | -0.649
RRIRHRPPRLPRPRPRPACWPRP | 0.375
RRIRERPPRLPRPRPRPYDQPRP | -0.518
RRIRERPPRLPRPRPRPYPEPRP | -0.918
RRIRERPPRLPRPRPRPCWMPRP | -0.239
RRIRERPPRLPRPRPRPIAEPRP | 0.255
RRIRVRPPRLPRPRPRPPEPPRP | 0.382

Sequence | shrunken log2 fold change
RRIRQRPPRLPRPRPRPKPAPRP | 0.357
RRIRWRPPRLPRPRPRPGFEPRP | 0.427
RRIRIRPPRLPRPRPRPGGHPRP | -0.0701
RRIRHRPPRLPRPRPRPQWSPRP | -0.0854
RRIRTRPPRLPRPRPRPIRIPRP | -0.202
RRIRCRPPRLPRPRPRPYFKPRP | -0.931
RRIRERPPRLPRPRPRPNNLPRP | -1.05
RRIRERPPRLPRPRPRPTCSPRP | -0.397
RRIRWRPPRLPRPRPRPICHPRP | -0.0597
RRIRKRPPRLPRPRPRPTYMPRP | -0.121
RRIRFRPPRLPRPRPRPMHSPRP | -0.263
RRIRCRPPRLPRPRPRPGDHPRP | -0.583
RRIRDRPPRLPRPRPRPIIGPRP | -0.193
RRIRCRPPRLPRPRPRPLNNPRP | -0.694
RRIRNRPPRLPRPRPRPEFSPRP | 0.0268
RRIRKRPPRLPRPRPRPVSSPRP | 0.00728
RRIRCRPPRLPRPRPRPSPSPRP | 0.128
RRIRMRPPRLPRPRPRPHWAPRP | 0.00824
RRIRKRPPRLPRPRPRPVKWPRP | 0.122
RRIRYRPPRLPRPRPRPHIAPRP | -0.408

— the supplement of paper PMC9112550, “Optimization of the antimicrobial peptide Bac7 by deep mutational scanning” (BMC Biology, 2022)
